# Assay results taken from patent publication US20260035728A1 (Chugai, published 2026).
# Numbering of substitutions follows the chain as printed. Names and notes keep the numbering of the source.
# B1: humanized A69 antibody H chain, IgG4-type w1 (R409D, K370E) (other)
# heavy: EVQLVQSGAEVVKPGSSVKVSCTASGYTFSDYYMHWVRQAPGEGLEWMGYINPSSGYTKYNRKFRDRVTITADKSTSTAYMELSSLRSEDTAVYYCARGGLGYYLDYWGEGTTVTVSSASTKGPSVFPLAPCSRSTSESTAALGCLVKDYFPEPVTVSWNSGALTSGVHTFPAVLQSSGLYSLSSVVTVPSSSLGTKTYTCNVDHKPSNTKVDKRVESKYGPPCPPCPAPEFLGGPSVFLFPPKPKDTLMISRTPEVTCVVVDVSQEDPEVQFNWYVDGVEVHNAKTKPREEQFNSTYRVVSVLTVLHQDWLNGKEYKCKVSNKGLPSSIEKTISKAKGQPREPQVYTLPPSQEEMTKNQVSLTCLVEGFYPSDIAVEWESNGQPENNYKTTPPVLDSDGSFFLYSDLTVDKSRWQEGNVFSCSVMHEALHNHYTQKSLSLSLGK
# B2: humanized A69 antibody H chain, IgG4-type w3 (K370E, K439E) (other)
# heavy: B1 heavy with D407R, K437E
# B3: humanized A69 antibody H chain, IgG4-type w3C (K370E, K439E, Y349C) (other)
# heavy: B1 heavy with Y347C, D407R, K437E
# B4: humanized A69 antibody H chain, IgG4-type w2 (R409D, K439E) (other)
# heavy: B1 heavy with E368K, K437E
# B5: humanized A69 antibody H chain, IgG4-type w3C2 (K370E, K439E, S354C) (other)
# heavy: B1 heavy with S352C, D407R, K437E
# B6: humanized A69 antibody H chain, IgG4-type s1C (R409D, Y349C) (other)
# heavy: B1 heavy with Y347C, E368K
# Key:
# Assay in all cases: co-expression of both H chains with the common L chain; cation exchange chromatography (IEX), ratio of peak areas of A-Homo, BiAb and B-Homo; IgG4-type
# [1] = biological target: humanized B26 antibody H chain, IgG4-type w1 (D399K, E357K)
# [2] = biological target: humanized B26 antibody H chain, IgG4-type w3 (E357K, E356K)
# [3] = biological target: humanized B26 antibody H chain, IgG4-type w3C (E357K, E356K, S354C)
# [4] = biological target: humanized B26 antibody H chain, IgG4-type w2 (D399K, E356K)
# [5] = biological target: humanized B26 antibody H chain, IgG4-type w3C2 (E357K, E356K, Y349C)
# [6] = biological target: humanized B26 antibody H chain, IgG4-type s1C (D399K, S354C)
binder,measurement,setting,value
B1,BiAb formation efficiency (%),[1],≥ 90%
B2,BiAb formation efficiency (%),[2],≥ 90%
B3,BiAb formation efficiency (%),[3],≥ 90%
B4,BiAb formation efficiency (%),[4],≥ 90%
B5,BiAb formation efficiency (%),[5],≥ 90%
B6,BiAb formation efficiency (%),[6],≥ 90%
